# Data as given in patent publication US20260085127A1 (BRIGHTPATH BIOTHERAPEUTICS, published 2026).
# Several values for one entry are separate records, joined by “and”; a condition that tells them apart may be missing. Identical values can stand only once. Like-named read-outs stand apart in the source and are kept apart here.
# T1: human CD39 (Accession No. NM_001776.6) expressed on cells (human, UniProt P49961 1-510)
# T1 construct: whole, on cells; On Jurkat, 293T or SK-MEL28 cells; also called Jurkat/CD39; 293T/CD39
# T1 sequence (looked up): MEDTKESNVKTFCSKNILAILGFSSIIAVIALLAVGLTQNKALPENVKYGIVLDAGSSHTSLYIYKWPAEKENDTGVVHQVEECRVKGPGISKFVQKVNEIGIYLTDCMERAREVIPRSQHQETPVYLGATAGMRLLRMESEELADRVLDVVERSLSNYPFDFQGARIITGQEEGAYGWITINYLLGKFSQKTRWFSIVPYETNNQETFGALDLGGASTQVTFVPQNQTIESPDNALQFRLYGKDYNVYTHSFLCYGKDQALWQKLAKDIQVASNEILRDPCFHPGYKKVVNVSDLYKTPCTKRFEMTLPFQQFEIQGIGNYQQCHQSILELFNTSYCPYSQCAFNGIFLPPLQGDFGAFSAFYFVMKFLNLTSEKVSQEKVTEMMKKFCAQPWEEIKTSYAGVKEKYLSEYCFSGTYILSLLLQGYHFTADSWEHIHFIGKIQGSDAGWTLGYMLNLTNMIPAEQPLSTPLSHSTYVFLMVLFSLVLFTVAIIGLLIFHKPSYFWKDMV
# T2: recombinant human CD39 (in-house product, 38 to 478 aa of Accession No. NM_001776.6) (human, UniProt P49961 38-478)
# T2 construct: also called rhCD39; human CD39-ECD; not shown: Myc and His tags at the C-terminus are named only for the PE-lab
# T2 sequence (looked up): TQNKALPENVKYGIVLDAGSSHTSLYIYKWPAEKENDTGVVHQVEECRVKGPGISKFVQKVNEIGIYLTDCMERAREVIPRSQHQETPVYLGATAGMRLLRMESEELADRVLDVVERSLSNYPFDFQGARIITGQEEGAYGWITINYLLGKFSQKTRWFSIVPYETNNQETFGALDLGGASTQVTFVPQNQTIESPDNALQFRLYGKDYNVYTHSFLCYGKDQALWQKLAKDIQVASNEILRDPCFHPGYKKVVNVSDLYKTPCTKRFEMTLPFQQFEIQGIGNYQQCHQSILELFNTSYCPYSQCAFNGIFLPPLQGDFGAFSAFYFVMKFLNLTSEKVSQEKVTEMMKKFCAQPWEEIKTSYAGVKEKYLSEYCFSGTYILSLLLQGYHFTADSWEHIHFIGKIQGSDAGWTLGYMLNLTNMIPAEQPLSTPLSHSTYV
# How the values were obtained:
# [1] = molecular target: T3, human TIM-3 (Accession No. JX049979.1) stably expressed on cells (human, UniProt Q8TDQ0 22-301); test: flow cytometry, Jurkat/TIM-3 cells, KD from MFI
# T3 construct: whole, on cells; On Jurkat or 293T cells; also called Jurkat/TIM-3; 293T/TIM-3
# [2] = molecular target: T3, human TIM-3 (Accession No. JX049979.1) …; test: flow cytometry, Jurkat/TIM-3 + CD39 cells, KD from MFI
# [3] = molecular target: T1, human CD39 (Accession No. NM_001776.6) …; test: flow cytometry on a mix of Jurkat, Jurkat/TIM-3, Jurkat/CD39 and Jurkat/TIM-3+CD39 cells in one well, antibody at 0.1 nM, BV421-anti-hIgG, MFI of BV421 per cell group
# [4] = molecular target: T4, biotinylated human TIM-3-Fc antigen (in-house product, SEQ ID No: 118) (human, biotinylated); test: flow cytometry, inhibition of biotinylated TIM-3-Fc binding to phosphatidylserine on apoptotic Jurkat cells
# [5] = molecular target: T1, human CD39 (Accession No. NM_001776.6) …; test: flow cytometry on a mix of Jurkat, Jurkat/TIM-3, Jurkat/CD39 and Jurkat/TIM-3+CD39 cells in one well, antibody at 1 nM, BV421-anti-hIgG, MFI of BV421 per cell group
# [6] = molecular target: T1, human CD39 (Accession No. NM_001776.6) …; test: flow cytometry, 293T/CD39 cells, KD from MFI
# [7] = molecular target: T1, human CD39 (Accession No. NM_001776.6) …; test: flow cytometry, 293T/TIM-3 + CD39 cells, KD from MFI
# [8] = molecular target: T2, recombinant human CD39 (in-house …); test: SPR Biacore8K, antibody captured on anti-human IgG, antigen as analyte
# [9] = molecular target: T3, human TIM-3 (Accession No. JX049979.1) …; test: flow cytometry on a mix of Jurkat, Jurkat/TIM-3, Jurkat/CD39 and Jurkat/TIM-3+CD39 cells in one well, antibody at 1 nM, BV421-anti-hIgG, MFI of BV421 per cell group
# [10] = molecular target: T4, biotinylated human TIM-3-Fc antigen …; test: flow cytometry, inhibition of biotinylated TIM-3-Fc binding to phosphatidylserine on apoptotic Jurkat cells; remark: listed apart in the source
# [11] = molecular target: T4, biotinylated human TIM-3-Fc antigen …; test: competition ELISA: human Galectin-9 coated, biotinylated human TIM-3-Fc pre-mixed with the antibody dilution series, Streptavidin-HRP, A450; blocked ligand: human Galectin-9
# [12] = molecular target: T1, human CD39 (Accession No. NM_001776.6) …; test: flow cytometry, 293T/CD39 cells, KD from MFI; remark: listed apart in the source
# [13] = molecular target: T3, human TIM-3 (Accession No. JX049979.1) …; test: flow cytometry, 293T/TIM-3 cells, KD from MFI
# [14] = molecular target: T2, recombinant human CD39 (in-house …); test: SPR Biacore8K, antibody captured on anti-human IgG, antigen as analyte; remark: listed apart in the source
# [15] = molecular target: T4, biotinylated human TIM-3-Fc antigen …; test: competition ELISA: human Galectin-9 coated, biotinylated human TIM-3-Fc pre-mixed with the antibody dilution series, Streptavidin-HRP, A450; blocked ligand: human Galectin-9; remark: listed apart in the source
binder,measurement,setting,value
"Hu072_11_sc (antibody, scFv-Fc homodimer, anti-TIM-3; also called scFv-Fc homodimeric antibody of anti-TIM-3_ScFv antibody Hu072_11; not shown: GGGG linker and Fc-LALA (IgG1 Fc with L234A and L235A)) scFv: QVQLQESGGGLVKPGGSLKLSCAASGFTFSSYYMSWVRQTPDKRLEWVATISNSGGSTYYPDSVKDRFTISRDNAKNTLYLQMSSLKSEDTAMYYCARDPYYTNYVPMDYWGQGTMVTVSSGGGGSGGGGSGGGGSGGGGSDIVMTQSPDSLAVSLGERVTLSCKASENVGTYVSWYQQKPRQPPKLLIYGASNRYTGVPDRFSGSGSGTDFTLTISSLQAEDVALYYCGQSYSYPLTFGQGTRLEIK",Kd,[1],26.8 nM
same,Kd,[2],31.2 nM
same,binding result,[3],no binding (tested: 0.1 nM)
"Hu003_13_F20_LA (antibody, V domains shown, IgG1LALA homodimeric antibody (IgG1 with L234A and L235A); also called Hu003_LA; Hu003-LA) VH: QVQLQESGGGLVKPGGSLKLSCAASGFTFSSYYMSWVRQTPDKRLEWVATISNSGGSTYYPDSVKDRFTISRDNAKNTLYLQMSSLKSEDTAMYYCARDPYYTNYVPMDYWGQGTMVTVSS VL: DIVMTQSPSFLSASVGDRVTITCKASQYVDTYVAWYQQRPGKAPKPLIYSASTRHTGVPSRFSGSGSGTEFTLTISSLQPEDFATYFCAQYSSSPLTFGGGTKLELK",IC50,[4],8.93 nM and 7.11 nM and 8.51 nM and 12.3 nM
same,binding result,[5],no binding (tested: 1 nM)
"6-3hIG_LA (antibody, V domains shown, IgG1LALA homodimeric antibody; also called IgG1LALA homodimeric antibody of anti-CD39 antibody (humanized) 6-3hIG) VH: QVQLVQSGAELVKPGASVKLSCKASGFSIKDTYVHWVKQAPGKGLEWIGKIDPANVNTKFDPKFQGRVTITADTSTNTAYLQLSSLRSEDTAVYYCALYGYDDDAYYFDYWGQGTLVTVSS VL: EIVLTQSPASLSVSPGERATISCRASESVDNYGISFMNWFQQKPGQAPKLLIYAASNQGSGVPARFSGSGSGTDFTLTISSLEPEDFAVYYCQQSKEVPYTFGQGTKLEIK",Kd,[6],7.04 nM
same,Kd,[7],16.8 nM
same,Kd,[8],0.629 nM
same,koff,[8],0.000193 s⁻¹
same,kon,[8],307000 M⁻¹ s⁻¹
same,binding result,[9],no binding (tested: 1 nM)
HuP4_11_Hu003_Ct (bispecific antibody) chain 1: EVQLVESGGALVQPGRSLRLSCAVSGFTLSNYGVHWVRQAPGKGLEWVAVILRRGSTDYNAAFMSRFTISKDNSKNTVYLQMNSLRADDTAVVAGDYFDYWGQGTTVTVSSGGGGSGGGGSGGGGSGGGGSDIVMTQSQKFMSTSVGDRVSITCKASQNVGTNVAWYQQKPGQSPKLLIYSASYRYSGVPDRFTGSGSGTDFTLTISNMQSEDLADYFCQQYNSYPLTFGGGTKLEIK chain 2: QVQLQESGGGLVKPGGSLKLSCAASGFTFSSYYMSWVRQTPDKRLEWVATISNSGGSTYYPDSVKDRFTISRDNAKNTLYLQMSSLKSEDTAMYYCARDPYYTNYVPMDYWGQGTMVTVSSGGGGSGGGGSGGGGSGGGGSDIVMTQSPSFLSASVGDRVTITCKASQYVDTYVAWYQQRPGKAPKPLIYSASTRHTGVPSRFSGSGSGTEFTLTISSLQPEDFATYFCAQYSSSPLTFGGGTKLELK,IC50,[10],30.7 nM
same,IC50 (read off the curve),[11],~3 nM
HuP4_IB_Hu003 (bispecific antibody) chain 1: QVQLLESGPELVKPSATLSITCTVSGFSLTNYGVHWIRQAPGKGLEWLGVILRRGSTDYNAAFMSRFTISKDNSKNQVYFKLRSVTAEDTAVVAGDYFDYWGQGTMVTVSSGGGGSGGGGSGGGGSGGGGSDIQMTQSHSTLSLSVGDRVTITCKASQNVGTNVAWYQQKPGQPPKALIYSASYRYSGVPSRFSGSGSGTDFTLTISSVQAEDVAVYYCQQYNSYPLTFGPGTKLEIK chain 2: QVQLQESGGGLVKPGGSLKLSCAASGFTFSSYYMSWVRQTPDKRLEWVATISNSGGSTYYPDSVKDRFTISRDNAKNTLYLQMSSLKSEDTAMYYCARDPYYTNYVPMDYWGQGTMVTVSSGGGGSGGGGSGGGGSGGGGSDIVMTQSPSFLSASVGDRVTITCKASQYVDTYVAWYQQRPGKAPKPLIYSASTRHTGVPSRFSGSGSGTEFTLTISSLQPEDFATYFCAQYSSSPLTFGGGTKLELK,Kd,[12],11.4 nM
same,Kd,[13],8.66 nM
same,Kd,[8],0.334 nM
same,IC50,[10],16.5 nM
same,IC50 (read off the curve),[11],~3 nM
"6-3hIG_Hu003_Fsc (bispecific antibody, not shown: a dimerising Fc or GST) VH: QVQLVQSGAELVKPGASVKLSCKASGFSIKDTYVHWVKQAPGKGLEWIGKIDPANVNTKFDPKFQGRVTITADTSTNTAYLQLSSLRSEDTAVYYCALYGYDDDAYYFDYWGQGTLVTVSS VL: EIVLTQSPASLSVSPGERATISCRASESVDNYGISFMNWFQQKPGQAPKLLIYAASNQGSGVPARFSGSGSGTDFTLTISSLEPEDFAVYYCQQSKEVPYTFGQGTKLEIK scFv: QVQLQESGGGLVKPGGSLKLSCAASGFTFSSYYMSWVRQTPDKRLEWVATISNSGGSTYYPDSVKDRFTISRDNAKNTLYLQMSSLKSEDTAMYYCARDPYYTNYVPMDYWGQGTMVTVSSGGGGSGGGGSGGGGSGGGGSDIVMTQSPSFLSASVGDRVTITCKASQYVDTYVAWYQQRPGKAPKPLIYSASTRHTGVPSRFSGSGSGTEFTLTISSLQPEDFATYFCAQYSSSPLTFGGGTKLELK",Kd,[12],17.6 nM
same,Kd,[14],0.21 nM
same,IC50,[4],15.5 nM
same,IC50 (read off the curve),[15],~2 nM
"I67_Hu003_Fsc (bispecific antibody, not shown: a dimerising Fc or GST, Fab-scFv-Fc heterodimer: anti-CD39 Fab I67 (Knob)) VH: DVQLQESGPSLVQPSQSLSINCTVSGFSLSSYGVHWVRQSPGKGLEWLGVIWRRGSTDYNAAFMSRLSITKDNSKSQVFFKMNRLQADDTATYYCAKGISTATSWFAYWGQGTLVTVSA VL: DIVMTQSHKFMSTSVGDRVSVTCKASQNVGTNVAWYQQKPGQSPKALIYSASYRYSGVPDRFTGSGSGTDFTLTISNVQSEDLAEYFCQQYNSYPLTFGAGTKLELK scFv: QVQLQESGGGLVKPGGSLKLSCAASGFTFSSYYMSWVRQTPDKRLEWVATISNSGGSTYYPDSVKDRFTISRDNAKNTLYLQMSSLKSEDTAMYYCARDPYYTNYVPMDYWGQGTMVTVSSGGGGSGGGGSGGGGSGGGGSDIVMTQSPSFLSASVGDRVTITCKASQYVDTYVAWYQQRPGKAPKPLIYSASTRHTGVPSRFSGSGSGTEFTLTISSLQPEDFATYFCAQYSSSPLTFGGGTKLELK",Kd,[13],4.78 nM
same,IC50,[4],25.2 nM
